Laboratory results published in publication PMC3992434 (Developmental cell, 2013).

Biological target: MBP-LDLR tail wild-type (full-length LDLR tail fused to maltose-binding protein)
Experiment: pull-down

fold binding relative to AP-1A: ~5 fold
B1: recombinant GST-His-tagged AP-1B core complex (γ, β1, μ1B, σ1) (complex)
chain 1: not shown
chain 2: MTDSKYFTTTKKGEIFELKAELNSDKKEKKKEAVKKVIASMTVGKDVSALFPDVVNCMQTDNLELKKLVYLYLMNYAKSQPDMAIMAVNTFVKDCEDPNPLIRALAVRTMGCIRVDKITEYLCEPLRKCLKDEDPYVRKTAAVCVAKLHDINAQLVEDQGFLDTLKDLISDSNPMVVANAVAALSEIAESHPSSNLLDLNPQSINKLLTALNECTEWGQIFILDCLANYMPKDDREAQSICERVTPRLSHANSAVVLSAVKVLMKFMEMLSKDLDYYGTLLKKLAPPLVTLLSAEPELQYVALRNINLIVQKRPEILKHEMKVFFVKYNDPIYVKLEKLDIMIRLASQANIAQVLAELREYATEVDVDFVRKAVRAIGRCAIKVEQSAERCVSTLLDLIQTKVNYVVQEAIVVIKDIFRKYPNKYESVIATLCENLDSLDEPEARAAMIWIVGEYAERIDNADELLESFLEGFHDKSTQVQLQLLTAFVKLFLKKPTETQELVQQVLSLATQDSDNPDLRDRGYIYWRLLSTDPVAAKEVVLAEKPLISEETDLIEPTLLDELICYIGTLASVYHKPPSAFVEG
chain 3: MSASAVFILDVKGKPLISRNYKGDVPMTEIDHFMPLLMQREEEGVLAPLLSHGRVHFLWIKHSNLYLVATTLKNANASLVYSFLYKTVEVFCEYFKELEEESIRDNFVIVYDLLDELMDFGFPQTTDSKILQEYITQQGNKLETGKSRVPPTVTNAVSWRSEGIKYKKNEVFIDVIESVNLLVNANGSVLLSEIVGTIKLKVFLSGMPELRLGLNDRVLFELTGRSKNKSVELEDVKFHQCVRLSRFDNDRTISFIPPDGDFELMSYRLSTQVKPLIWIESVIEKFSHSRVEIMVKAKGQFKKQSVANGVEISVPVPSDADSPRFKTSVGSAKYVPEKNVVIWSIKSFPGGKEYLMRAHFGLPSVETEEVEGRPPIGVKFEIPYFTVSGIQVRYMKIIEKSGYQALPWVRYITQSGDYQLRTS
chain 4: MIHFILLFSRQGKLRLQKWYITLPDKERKKITREIVQIILSRGHRTSSFVDWKELKLVYKRYASLYFCCAIENQDNELLTLEIVHRYVELLDKYFGNVCELDIIFNFEKAYFILDEFIIGGEIQETSKKIAVKAIEDSDMLQEVSTVCQTMGER
